Test results: article PMC9879077
Where two headings read alike, the source gives them in different places.

Key:
[1] = molecular target: T1, c-Fos;c-Jun (mouse (cDNA from ST2 cells);mouse (cDNA …, UniProt P01101;P05627 1-380;1-334, |)); experiment: EMSA
[2] = molecular target: T1, c-Fos;c-Jun; experiment: EMSA; remark: listed apart in the source

T1 sequence (P01101 whole entry, chain 1 of 2): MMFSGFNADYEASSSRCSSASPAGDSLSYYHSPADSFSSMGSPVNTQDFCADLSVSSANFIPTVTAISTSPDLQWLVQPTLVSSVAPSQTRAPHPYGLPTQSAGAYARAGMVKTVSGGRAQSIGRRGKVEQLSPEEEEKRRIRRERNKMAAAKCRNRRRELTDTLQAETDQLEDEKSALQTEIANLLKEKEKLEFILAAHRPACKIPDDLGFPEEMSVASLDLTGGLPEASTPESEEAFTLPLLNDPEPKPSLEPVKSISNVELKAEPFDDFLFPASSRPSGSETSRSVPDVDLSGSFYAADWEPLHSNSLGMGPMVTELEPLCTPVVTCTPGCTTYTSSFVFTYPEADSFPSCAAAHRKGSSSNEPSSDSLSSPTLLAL
T1 sequence (P05627 whole entry, chain 2 of 2): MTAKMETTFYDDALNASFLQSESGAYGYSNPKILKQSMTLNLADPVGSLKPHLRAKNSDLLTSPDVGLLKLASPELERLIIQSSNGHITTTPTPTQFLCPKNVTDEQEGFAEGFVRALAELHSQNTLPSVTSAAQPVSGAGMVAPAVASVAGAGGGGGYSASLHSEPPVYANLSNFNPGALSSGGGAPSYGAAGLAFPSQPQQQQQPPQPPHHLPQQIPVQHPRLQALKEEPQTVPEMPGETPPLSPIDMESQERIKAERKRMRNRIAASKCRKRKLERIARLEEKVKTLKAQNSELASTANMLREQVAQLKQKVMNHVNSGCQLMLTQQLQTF

Row | Binder | binding result [1] | binding result [2]
1 | Oligo incl TRE (dsDNA) DNA 1: TGAGTCAATGAGTCAGCTGACTCATTGACTCA DNA 2: GGTGAGTCAATGAGTCAGCTGACTCATTGACTCA | binds | 
2 | Oligo incl mutant TRE (dsDNA) DNA 1: TGTGACAATGTGACAGCTGTCACATTGTCACA DNA 2: GGTGTGACAATGTGACAGCTGTCACATTGTCACA |  | no binding
